# Measurements from the DeepSol protein solubility set.
# Test: soluble on expression in E. coli; label from the status in PepcDB or PDB records
row,Sequence,soluble on expression in E. coli
1,TGASNYYIIFTSGTTGVPKGVQISHDNLVSFTNWLLQDFGLEEGARFLAQAPYSFDLSVMSIYPALALGGSLTPLPNEIINDFKQLFTRLPQLTIDVWVSTPSFIELCLMEPSFDGEHLPALRTFLFCGEELPKPTAEKLAARFPTAHIYNTYGPTEATVAISAIEITQEVLKSVQ,not soluble
2,THMRCRVYYEDTDSEGVVYHANYLKYCERARSEFFFKQNVLPENEEGVFVIRSIKADFFTPASLGQVLEIRTQIKELRKVFVVLFQEIYCIQNASLEPMKPFKVFASEIKFGFVNRSTYSPIAIPKLFKELLNAI,soluble
3,THRAFNPKTLYIDASTSALKYSQGSTVYFRLPLDDIVRVQIQKESFSSQSLMIYTVNDSYQVPNSDNFDSLQLKYLMKKLEKRLDDQRR,not soluble
4,TINPVMQQVAYDQLTAKGYTGSVVAIEPSTGRILTMVSTPSYDPNSLASHDGTETTQAWEALNADPEKPLINRAVSQTYPPGSTFKVVVTAAALAAGTTPDTQLTAAPQITLPGTSTTLENYNGSTCGGAPTASLREAFARSCNTAFVELGVKTGTDAVSDQSSALGIGGQMPGVPFPVADSTIGSIPDDAALGQSSIGQRDVALTPLQNAMIAATVANGGVRMQPQLVSELQGPDLSNLATTNPVSEGQAMSSQVAATLTDLMIGSENNTSGEGKIPGVQIASKTGTAEHGTDPRNTPPHAWYIGFAPAQNPTVAIAVIVEDGGDRALAATGGSVAAPIGRAVIAAGLQGG,not soluble
5,TKDFSWRTSLNFAYNKNKIVDLQYKENLTSRGLSLAGMSGDYSNLWIIGQPIDINYNLMTLGVWQLDEAEEAAKYGCKPGQYKPLDLNEDGVIDDKDRVIDGKRTPDWTGGMTNTFTYKEFDLSFQAAFQAGARARNQFYVSYALENNNLNFNNLRKDYWTPENPTNASAQPSNMGTYRSKAGSWGNAKSEMSHTMFSSNFLKISYITLGYTFKPSVLEKMKLGNLRLYATVQNPFIFCAKDVVDPEQLNVSINTSDAMTRNVIFGINLSFK,not soluble
6,TKEHRAIARKTASESFVLLKNEGVLPLSKKGTIAVVGPLANTRSNMPGTWSVAAVLDNAPSLVEGLREVVGDRAKVVTAKGSNLIGDADYEKRATMFGRELHRDNRTDRELLDEALKVAAGADVIVAALGESSEMSGESSSRTNLEMPDVQRALLQELLKTGKSVVLVLFTGRPLVLTWEEEHVPAILNVWFGGSEAAYAISDVLFGDVNPSGKLTATFPQNVGQIPLFYNHKNTGRPLQEGRWFEKFRSNYLDVSNEPLYPFGYGL,not soluble
7,TKKNELNKAHVTIALTNPKTPTNVGAVIRAAGCYQADQIIYNGNRYAQAAKYHKKTLQTDTFNMQDKIPLLQVESFIGIKDSLESIPSSAKIICVDLVEGATPLPHFIHPPEAVYIFGPEDSSVKQEVIDIADDVVYVPTVGCMNLAATVNVLLYDRLAKSL,not soluble
8,TLKGKTALVTGSTSGIGLGIAQVLARAGANIVLNGFGDPAPALAEIARHGVKAVHHPADLSDVAQIEALFALAEREFGGVDILVNNAGIQHVAPVEQFPLESWDKIIALNLSAVFHGTRLALPGMRARNWGRIINIASVHGLVGSTGKAAYVAAKHGVVGLTKVVGLETATSNVTCNAICPGWVLTPLVQKQIDDRAANGGDPLQAQHDLLAEKQPSLAFVTPEHLGELVLFLCSEAGSQVRGAAWNVDGGWLAQ,soluble
9,TQEKRSYMEKLSDENGIISALAFDQRGALKRLMAQYQTQEPTIAQMEELKVLVAEELTPYASSMLLDPEYGLPAAKHLDKNAGLLLAYEKTGYDTTSTKRLPDCLVEWSAKRLKKQGADAVKFLLYYDVDGDEEVNQQKQAYIERIGSECKAEDIPFFLEILAYDETITDAASVEYAKVKPHKVLDAMKVFSDERFGIDVLKVEVPVNMKYVEGFGDGPIVHTQDQAANFFKQQDQATPLPYIYLSAGVSAKLFQDTLVFAKESGANFNGVLCGRATWAGSVKDYIEKGEAAARQWLRTEGFKNIDELNKVLKATATSWKE,not soluble
10,TQLQLKDSMEKFGALYHSSSLGMLIVIEREIVDANHRALELLSYKKSDLLEQSLDTLCPTTADECRVDAMYRELQHGRNQFEAQMLDSHGETIDCLIEATLIQHNGHTALMLLLQDLS,not soluble
11,TQVYKAKFGTPNRGWVIIVHGLGEHSGRYSKLVSMLVNEGYAVYTFDWPGHGKSPGKRGHTSVEEAMEIIDFIIEEINDKPFLFGHSLGGLTVIRYAETRPEKIRGVIASSPALAKSPKTPSFMVALAKILGVLLPSLTLSNGIDPNLLSRNPDAVKRYIEDPLVHDRISAKLGRSIFKNMDLAHREAHKIKVPVLLLVGTGDVITPPEGARKLYGEIKVEDKEIVEFEGAYHEIFEDPEWGEEFHKKIVEWIKKH,not soluble
12,TSSLSYWQGEAFRRGFDSRGRFDDVLKILLLLDAAQKEGKALPVQEFRRHINMGYDELGELLEKLARHGYIYSGRQGWVLKTGADSIELNELFKLFVYRPLPVERDHVNQAVDAVMTPCLQTLNMTLAEFDAQAKKRQ,not soluble
13,TTQNELLNRIAELETKVAFQDNVIEELNQVLIHHQFVLDKLQTQVRHFANKFKNIQSSNVASQAEETPPPHY,not soluble
14,TTTVGLVCKDGVVMATEKRATMGNFIASKAAKKIYQIADRMAMTTAGSVGDAQFLARIIKIEANLYEIRRERKPTVRAIATLTSNLLNSYRYFPYLVQLLIGGIDSEGKSIYSIDPIGGAIEEKDIVATGSGSLTAYGVLEDRFTPEIGVDEAVELAVRAIYSAMKRDSASGDGIDVVKITEDEFYQYSPEEVEQILAKFRK,soluble
15,TVEFRDLQGQRMIAVAENVASTPVVRDQLSDRSVERVLAPEVDRAVNLSGATLAEIVAPNGAVTVSSDPTRLGVPAELGASDVMTGRAWSGDVDVDGRRAIVGHVPILSATGDVLAVVTVSDDYPSVWDLLSSAG,not soluble
16,TVQVPVYSEQEYQLYLHDDAWTKAETDHLFDLSRRFDLRFVVIHDRYDHQQFKKRSVEDLKERYYHICAKLANVRAVPGTDLKIPVFDAGHERRRKEQLERLYNRTPEQVAEEEYLLQELRKIEARKKEREKRSQDLQKLITAADTTAEQRRTERKAPKKKLPQKKEAEKPAVPETAGIKFPDFKSAGVTLRSQRMKLPSSVGQKKIKALEQMLLELGVELSPTPTEELVHMFNELRSDLVLLYELKQACANCEYELQMLRHRHEALARAGVLGGPATPASGPGPASAEPAVTEPGLGPDPKDTIIDVVGAPLTPNSRKRRESASSSSSVKKAKKP,soluble
17,VADVVPLDANNRILVHQGLMRIRAGRARPGLRAILEVARREPARITSTDLGFILGPRLNAAGRLDDMSLGIECLLCDDPTRAREMAVQLDELNQDRKSIEQGMQREALAQLKDLPMESMPFGLCLFDAEWHQGVIGIL,not soluble
18,VDEKALKHITEMGFSKEASRQALMDNGNNLEAALNVLLTSNKQKPVMGPP,soluble
19,VDGDQCESNPCLNGGSCKDDINSYECWCPFGFEGKNCEL,soluble
20,VDRLHIIGDIFDRGPRADIIMDKLEEYHAVDIQWGNHDILWMGAASGSSVCMANVIRISARYANLSTIEDGYGINLLPLATFAMDFYGNDKCKNFEPKIESDKSYTVKEIELIGKMHKAIAIIQFKLEGEAIKRHPEFKMEHRMLLNKINFEDSTIELDGKKYKLNDTSFPTIDKNDPYKLIDEEREVVEKLRSSFVNSEKLNRHVRFLFSHGNLYLKFNSNLLYHGCIPLNEDGTFKEVLIGSHKYKGKALLDKLDVLARKSFFYEENSKNSKYENDMIWYLWSGPFSPLFGKEKMTTFERYFIDDKKTHYEKKDPYYHYRDDEDICINILREFGLDSEQAHIINGHVPVESKNGENPIKANGKLIVIDGGFSKAYQSKTGIAGYTLIYNS,not soluble
21,VDSVFVVGHKNLDMDALGASVGMQAFANNIIEHAAYAVYDEDSMSHDVARAVNRLKEDGHTQLLTVKESIEQVSDNSLLVMVDHSKLQLTLSRELYNKFTEVIVIDHHRRDDDFPENAILTFIESGASSASELVTELLQFQNGKYHLNKIQASIVMAGIMLDTKSFSTRVTSRTFDVASYLRTLGSDNVEIQNISALDF,not soluble
22,VEVESFLVHPGDLLQLRCRLRDDVQSINWLRDGVQLAESNRTRITGEEVEVQDSVPADSGLYACVTSSPSGSDTTYFSVNVSDALP,soluble
23,VFALSNNLNRVNACMDGFLARIRSHVDAHAPELRSLFDTMAAEARFARDWLSEDLARLPVGAALLEVGGGVLLLSCQLAAEGFDITAIEPTGEGFGKFRQLGDIVLELAAARPTIAPCKAEDFISEKRFDFAFSLNVMEHIDLPDEAVRRVSEVLKPGASYHFLCPNYVFPYEPHFNIPTFFTKELTCRVMRHRIEGNTGMDDPKGVWRSLNWITVPKVKRFAAKDATLTLRFHRAMLVWMLERALTDKEFAGRRAQWMVAAIRSAVKLRVHHLAGYVPATLQPIMDVRLTKR,not soluble
24,VGAPLAVELDRSSPVPLYFQLAQTIENAIIGGELAPGDRFENELALAKRLNLSRPTTRRAIQELVDKGLLVRKRGVGTQVVQSAVHRPVELTSLFDDLARAGQSPTTKLLDYQVSVPAEDVAAELNLQPGAEVASIRRLRSTNGEPLALMTNHIPVDLAPDPEELEAHGLYHALRARGVHIRLARQRIGAKAASKAEASLLDEKTGAPLLTMNRTAFDDSGSAVEFGSHCYRASRYYFDTTVVDR,not soluble
25,VGVGYFDTIEIKTILSLLQIIDNPMQDIPLISVLKSPIFGFTPEDLIDIRVQSKDKIFYEVLKSTAEYDGFTDSQNENESEFIPSEECINKSKDFLIKLKEFKEKSMYMSTDEFIWYLYTRTGYYAYVGALPGGSQRQANLKVLFERAKQFEETSLKGIFNFVNFIEKLKKSSSDMGSAKT,soluble
26,VHSELTAAVGWNVWNELFTCSDDQTIHKWNMLGEPEQKVSTLDAYFTDMHWYPVSSKKTQAGGTDVFAVACTDGSVKILSRTGRVEKSIEGHKGACISLRWSYDGTALATAGEDGSVKIWSRNGMLRSTLAQADSPVYSIVWAYDCDQLCYCTGSNVVIKSLSSNAKQNAWKAHDGVVLKVDWSPINHLIITGGEDCKYKVWDSFGRLLFQSGLFDYPVTSVAWAPSGELFAVGGFNTLQLCDRMGWAYSKIHLNDTGSIMTLSWTADSTQLA,not soluble
27,VKLTDVDFAVEASGMVRAFNQAGVLDVSDVHVAQRLCALAGESDERVALAVAVAVRALRAGSVCVDLLSIARVAGHDDLPWPDPADWLAAVRASPLLADPPVLHLYDDRLLYLDRYWREEEQVCADLLALLTSRRPAGVPDLRRLFPTGFDEQRRAAEIALSQGVTVLTGGPGTGKTTTVARLLALVAEQAELAGEPRPRIALAAPTGKAAARLAEAVRREMAKLDATDRARLGDLHAVTLHRLLGAKPGARFRQDRQNRLPHNVIVVDETSMVSLTLMARLAEAVRPGARLILVGDADQLASVEAGAVLADLVDGFSVRDDALVAQLRTSHRFGKVIGTLAEAIRAGDGDAVLGLLRSGEERIEFVDDEDPAPRLRAVLVPHALRLREAALLGASDVALATLDEHRLLCAHRDGPTGVLHWNRRVQAWLAEETGQPPWTPWYAGRPLLVTANDYGLRVYNGDTGVVLAGPTGLRAVISGASGPLDVATGRLGDVETMHAMTIHKSQGSQVDEVTVLMPQEDSRLLTRELLYTAVTRAKRKVRVVGSEASVRAAIARRAVRASGLRMRLQSTGCG,soluble
